According to patent US20140341881:

Columns and labels:
[1] = tested on: CFP-LQRAI-YFP-6xHis substrate (peptide E8)
[2] = tested on: CFP-LSGGR-YFP-6xHis substrate (peptide E2)
[3] = tested on: CFP-LSRDN-YFP-6xHis substrate (peptide E7)
[4] = tested on: CFP-NNKLR-YFP-6xHis substrate (peptide E9)
[5] = tested on: CFP-NQRSS-YFP-6xHis substrate (peptide E5)
[6] = tested on: CFP-QRLRD-YFP-6xHis substrate (peptide F11)
[7] = tested on: CFP-RGKTN-YFP-6xHis substrate (peptide D9)
[8] = tested on: CFP-RQTND-YFP-6xHis substrate (peptide C11)
[9] = tested on: CFP-VGSLR-YFP-6xHis substrate (peptide G1)
[10] = tested on: CFP-YQSLN-YFP-6xHis substrate (peptide F10)
[11] = tested on: T1, CFP-AYGYK-YFP-6xHis substrate (peptide E1)
T1 sequence: GALGGAYGYKGST

[12] = tested on: T2, CFP-PDRHM-YFP-6xHis substrate (peptide F3)
T2 sequence: GALGGPDRHMGST

human plasma kallikrein (PK), sequence (chain, as listed by the source): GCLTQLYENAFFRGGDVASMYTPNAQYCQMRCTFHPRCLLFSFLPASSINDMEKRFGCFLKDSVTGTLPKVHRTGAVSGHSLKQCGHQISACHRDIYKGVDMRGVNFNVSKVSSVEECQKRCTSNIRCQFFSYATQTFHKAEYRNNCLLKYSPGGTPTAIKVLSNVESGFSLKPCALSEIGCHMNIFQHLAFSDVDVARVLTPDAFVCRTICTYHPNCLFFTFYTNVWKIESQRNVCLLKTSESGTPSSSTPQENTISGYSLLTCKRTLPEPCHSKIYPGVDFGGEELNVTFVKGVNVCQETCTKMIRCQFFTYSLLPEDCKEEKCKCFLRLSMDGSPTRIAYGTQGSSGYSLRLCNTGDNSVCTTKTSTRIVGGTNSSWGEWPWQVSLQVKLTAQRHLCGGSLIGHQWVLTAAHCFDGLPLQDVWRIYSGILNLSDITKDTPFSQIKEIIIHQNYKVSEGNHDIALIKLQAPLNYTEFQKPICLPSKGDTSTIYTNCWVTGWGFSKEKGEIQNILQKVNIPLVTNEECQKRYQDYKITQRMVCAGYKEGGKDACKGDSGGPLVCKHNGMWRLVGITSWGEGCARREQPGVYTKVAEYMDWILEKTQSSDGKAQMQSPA

Row | Substance | Kcat/Km [1] [M⁻¹ s⁻¹] | Kcat/Km [2] [M⁻¹ s⁻¹] | Kcat/Km [3] [M⁻¹ s⁻¹] | Kcat/Km [4] [M⁻¹ s⁻¹] | Kcat/Km [5] [M⁻¹ s⁻¹] | Kcat/Km [6] | Kcat/Km [7] [M⁻¹ s⁻¹] | Kcat/Km [8] [M⁻¹ s⁻¹] | Kcat/Km [9] [M⁻¹ s⁻¹] | Kcat/Km [10] | Kcat/Km [11] [M⁻¹ s⁻¹] | Kcat/Km [12] [M⁻¹ s⁻¹]
1 | human kallikrein 2 (hK2) | 25000 | 14000 | 16000 | 12000 | 14000 | 32000 M⁻¹ s⁻¹ | 21000 | 23000 | 21000 |  |  | 
2 | human kallikrein hK1 |  |  |  |  |  | L.C. |  |  |  |  |  | 
3 | human plasma kallikrein (PK) | 5000 |  |  |  | 5000 |  |  |  |  |  |  | 
4 | prostate specific antigen (PSA, hK3) |  |  |  |  |  |  |  |  |  | L.C. |  | 
5 | trypsin | 2.27e+06 | 4.68e+06 | 246000 | 384000 | 2.07e+06 | 1.42e+06 M⁻¹ s⁻¹ | 2.11e+06 | 260000 | 270000 |  | 129000 | 319000
